Numbering of substitutions follows the chain as printed.
B1: 29H3 (antibody, V domains shown)
VH: QVQLVQSGAEVKKPGASVKVSCKASGYTFTSYDINWVRQATGQGLEWMGWMNPNSGKTGYAQKFQGRVTMTRNTSINTAYMELSSLRSEDTAVYYCARGGYSNLGWFDPWGQGTLVTVSS
VL: DIQMTQSPSSVSASVGDRVTITCRASQGISSWLVWYHQKPGKAPKLLIYGASSLQSGVPSRFSGSGSGTDFTLTISSLQPEDFATYYCQQANNFPFTFGPGTKVDIK
B2: 21H6 (antibody, V domains shown)
VH: QVQLVESGGGLVKPGGSLRLSCAASGFTFSDYYMSWIRQAPGKGLEWVSYISNSGITIYYADSVKGRFTISRDNAKNSLYLQMNSLRAGDTAVYYCAREEWYSSRWYRNFDYWGQGTLVTVSS
VL: DIQMTQFSSSLSASVGDRVTITCRASQSISRYLNWYQQKPGKAPKLLIYAASSLQSGVPSRFNGSGSGTDFTLTISSLQPEDFATYYCQQSYSAPLTFGGGTKVEIK
B3: 32B2 (antibody, V domains shown)
VH: EVQLLESGGGLVQPGGSLRLSCAASGFTFSNYAMSWVRQAPGKGLDWVSAISGRGGSTYYADSVKGRFTISRDNSKNTLFLLMNSLRAEDTAVYYCAKASGDDWGQGTLVTVSS
VL: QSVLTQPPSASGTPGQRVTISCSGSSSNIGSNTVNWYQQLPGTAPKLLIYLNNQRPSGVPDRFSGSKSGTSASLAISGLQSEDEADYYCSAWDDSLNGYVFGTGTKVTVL
B4: 21H9 (antibody, V domains shown)
VH: QVPLVESGGGVVQPGRSLRLSCAASGFTFSSYGMHWVRQAPGKGLEWVAVIWYDGSNKYYADSVQGRFTISRDNSKNTLYLQMNSLRAEDTAVYYCARGVTMVRGLIIARYYYGLDVWGQGTTVTVSS
VL: DIVMTQTPLSSPVTFGQPASISCRSSQSLVHSDGNTYLSWLQQRPGQPPRLLIYKISNRFFGVPDRFSGSGAGTDFTLKISRVEAEDVGLYYCMQSTQFPLTFGGGTKVEIK
B5: 30D7 (antibody, V domains shown)
VH: B4 VH with Q65K, L106V
VL: B4 VL with F15L, S81G
B6: 27A3 (antibody, V domains shown)
VH: QLQLQESGPGLVKPSETLSLTCTVSGGSISSRSDYWGWIRQPPGKGLEWIGTIYYSGDTYYNPSLKSRVTISVDTSKNQFSLKLSSVTAADTAVYYCARQQLVLYYFDYWGQGTLVTVSS
VL: EIVLTQSPGTLSLSPGERATLSCRASQSVSSSYLAWYQQKPGQAPRLLIYATSNRATGIPDRFSGSGSGTDFTLTISRLEPEDFAVYYCQQHGSSPPLTFGGGTKVEIK
B7: 22B8 (antibody, V domains shown)
VH: B6 VH with S33Y, D34Y, I39V, D58H, S67T, S85I, R99T, Y109F
VL: EIVLTQSPGTLSLSPGERAALSCRASQSISSSYLAWYQQRPGQAPRLLIYGASSRATGIPDRFNGSGSGTDFTLTISRLEPEDFAVYYCQQFGSSITFGQGTRLEIK
B8: 27D10 (antibody, V domains shown)
VH: B6 VH with D58S, Y60F
VL: not shown

Target: T1, KDR (human, UniProt P35968 20-1356)
T1 sequence (P35968 20-1356): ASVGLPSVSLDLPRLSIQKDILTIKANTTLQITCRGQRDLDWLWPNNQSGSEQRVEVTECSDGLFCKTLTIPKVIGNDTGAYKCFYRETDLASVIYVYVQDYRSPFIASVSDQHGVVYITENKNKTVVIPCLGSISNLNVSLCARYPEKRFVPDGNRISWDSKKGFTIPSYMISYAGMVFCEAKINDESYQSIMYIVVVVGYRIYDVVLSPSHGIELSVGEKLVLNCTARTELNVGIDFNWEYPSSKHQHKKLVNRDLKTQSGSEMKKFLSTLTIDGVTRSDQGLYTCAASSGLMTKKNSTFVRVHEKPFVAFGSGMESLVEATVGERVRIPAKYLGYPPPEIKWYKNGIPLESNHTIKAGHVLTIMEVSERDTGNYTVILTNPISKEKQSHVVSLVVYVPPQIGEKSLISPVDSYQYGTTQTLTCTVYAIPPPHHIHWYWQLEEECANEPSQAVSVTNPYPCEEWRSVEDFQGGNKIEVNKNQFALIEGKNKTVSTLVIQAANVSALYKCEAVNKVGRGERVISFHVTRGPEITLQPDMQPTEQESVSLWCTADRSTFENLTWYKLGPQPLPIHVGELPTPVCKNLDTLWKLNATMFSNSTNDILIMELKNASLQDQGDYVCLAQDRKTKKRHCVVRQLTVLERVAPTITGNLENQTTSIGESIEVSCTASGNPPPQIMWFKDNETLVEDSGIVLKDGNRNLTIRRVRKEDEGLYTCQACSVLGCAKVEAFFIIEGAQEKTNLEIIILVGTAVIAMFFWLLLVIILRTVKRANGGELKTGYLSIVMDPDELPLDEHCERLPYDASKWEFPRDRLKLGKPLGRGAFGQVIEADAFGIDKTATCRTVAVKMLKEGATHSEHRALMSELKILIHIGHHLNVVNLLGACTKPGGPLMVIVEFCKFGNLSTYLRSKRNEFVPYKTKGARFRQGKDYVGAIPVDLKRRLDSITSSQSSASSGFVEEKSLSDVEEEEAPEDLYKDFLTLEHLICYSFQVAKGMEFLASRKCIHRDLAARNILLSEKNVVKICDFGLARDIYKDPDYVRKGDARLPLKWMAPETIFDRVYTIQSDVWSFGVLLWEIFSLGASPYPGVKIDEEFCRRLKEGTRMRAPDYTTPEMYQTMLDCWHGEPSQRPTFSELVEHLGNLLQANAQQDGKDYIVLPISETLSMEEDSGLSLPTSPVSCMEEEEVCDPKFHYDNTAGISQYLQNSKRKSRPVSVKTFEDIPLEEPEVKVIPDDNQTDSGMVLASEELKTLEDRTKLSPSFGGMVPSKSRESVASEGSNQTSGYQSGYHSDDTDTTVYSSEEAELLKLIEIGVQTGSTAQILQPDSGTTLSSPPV
Assay: cell-based or functional assay

Activity at 133 nM (% Inhibition), 24-hour Pre-incubation at 37° C., Average [%] | Activity at 133 nM (% Inhibition), 24-hour Pre-incubation at 37° C., N = 1 [%] | Activity at 133 nM (% Inhibition), 24-hour Pre-incubation at 37° C., N = 2 [%] | Binder
19 | 1 | 36 | B1
27 | 35 | 19 | B2
49 | 38 | 61 | B3
-1 | -3 | 2 | B4
38 | 39 | 37 | B5
9 | 19 | 0 | B6
99 | 82 | 115 | B7
8 | 19 | -4 | B8

Target: T1, KDR
Assay: cell-based or functional assay
Remark: another data set of the same source

% Inhibition of VEGF165-mediated 6-keto Prostaglandin F1α release at 133 nM Antibody Concentration, Average [%] | % Inhibition of VEGF165-mediated 6-keto Prostaglandin F1α release at 133 nM Antibody Concentration, N = 1 [%] | % Inhibition of VEGF165-mediated 6-keto Prostaglandin F1α release at 133 nM Antibody Concentration, N = 2 [%] | Binder
18 | 14 | 22 | B1
100 | 104 | 96 | B2
6 | 3 | 9 | B3
33 | 5 | 61 | B4
10 | 4 | 15 | B5
88 | 54 | 121 | B6
72 | 67 | 76 | B7
84 | 56 | 111 | B8

Target: T1, KDR
Assay: cell-based or functional assay
Remark: another data set of the same source

Activity at 133 nM (% Inhibition), 1-hour Pre-incubation at 4° C., Average [%] | Activity at 133 nM (% Inhibition), 1-hour Pre-incubation at 4° C., N = 1 [%] | Activity at 133 nM (% Inhibition), 1-hour Pre-incubation at 4° C., N = 2 [%] | Binder
50 | 45 | 55 | B1
74 | 74 | 75 | B2
29 | 25 | 33 | B3
26 | 21 | 31 | B4
27 | 26 | 28 | B5
67 | 63 | 72 | B6
76 | 75 | 76 | B7
65 | 60 | 69 | B8

Target: T1, KDR
Assay: cell-based or functional assay
Remark: another data set of the same source

Binder | Activity at 133 nM Antibody Concentration (% Survival Inhibition), Average [%] | Activity at 133 nM Antibody Concentration (% Survival Inhibition), N = 1 [%] | Activity at 133 nM Antibody Concentration (% Survival Inhibition), N = 2 [%]
B1 | -70 | -5 | -136
B2 | 91 | 105 | 77
B3 | -21 | -13 | -29
B4 | -18 | -20 | -16
B5 | -51 | -9 | -92
B6 | 83 | 86 | 81
B7 | 88 | 88 | 87
B8 | 76 | 84 | 68

Target: T1, KDR
Assay: cell-based or functional assay
Remark: another data set of the same source

% of Max VEGF KDR pTyr Activity (at 133 nM antibody concentration), Average [%] | % of Max VEGF KDR pTyr Activity (at 133 nM antibody concentration), N = 1 [%] | % of Max VEGF KDR pTyr Activity (at 133 nM antibody concentration), N = 2 [%] | Binder
16 | 20 | 11 | B1
11 | 10 | 12 | B2
11 | 12 | 10 | B3
15 | 16 | 13 | B4
12 | 12 | 12 | B5
19 | 22 | 17 | B6
7 | 9 | 5 | B7
18 | 19 | 17 | B8

Reference: patent US20100260765A1 (AstraZeneca / MedImmune, published 2010)
